# Test results as given in PMC4373775.
# Molecular target: T1, ParB (Mycobacterium tuberculosis H37Rv) (UniProt P9WIJ9)
# T1 sequence: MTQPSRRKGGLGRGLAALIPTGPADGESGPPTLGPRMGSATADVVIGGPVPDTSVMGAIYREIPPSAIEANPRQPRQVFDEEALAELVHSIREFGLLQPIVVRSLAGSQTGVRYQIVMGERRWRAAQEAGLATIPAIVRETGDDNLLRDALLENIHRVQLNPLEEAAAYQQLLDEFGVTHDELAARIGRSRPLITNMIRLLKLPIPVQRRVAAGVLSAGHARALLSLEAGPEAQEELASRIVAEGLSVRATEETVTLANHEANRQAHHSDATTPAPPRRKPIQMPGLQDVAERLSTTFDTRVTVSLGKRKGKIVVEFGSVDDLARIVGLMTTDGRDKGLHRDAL
# Experiment: EMSA
sequence,measurement,value
GCGAGTGGAGGGACGGCGTGAGTGCTCCGTGGGGCCCGGTGGCCGCTGGACCGTCCGCGCTCGTAAGGTCGGGCCAGGCTTCAACTATCGAACCATTCCAGCGGGAAATGACACCACCGACACCGACGCCTGAGGCCGCGCACAATCCGACGATGAATGTTTCACGTGAAACATCGACAGAATTCGACACCCCCATCGGCGCTGCAGCAGAACGTGCGATGCG (double strand) [parS probe],binding,binds
